According to CN101066999A:

Experiments:
[1] = substrate: 人OPN (Osteopontin, R&D Systems) (human) (UniProt P10451); assay: sandwich ELISA: mAb coated at 1.0 μg/ml, OPN standard, rabbit anti-human OPN polyclonal serum as detector
[2] = substrate: 人OPN (Osteopontin, R&D Systems) (human) (UniProt P10451); assay: sandwich ELISA: mAbs coated at 1.0 μg/ml; OPN at 6.25-100 pg/mL for this mAb and 6.25-100 ng/mL for the commercial mAb

灵敏度 (detection sensitivity for OPN) [1]: 6.52 pg/mL | fold higher sensitivity for human OPN than the commercial mAb MAB14331 [2]: 1000 fold
B1: 重组抗OPN单克隆抗体 7G2 (antibody, V domains shown)
VL: DILMTQTPLSLPVSLGDQASISCRSSQSLVHSNGNTYLHWYLQKPGQSPKLLISKVSNRFSGVPDRFSGSGSGTDFTLKISRVEAEDLGVYFCSQSTHVPWTFGGGTKLEIKR
VH: MAQVQLEQSGPELVKPGASVKMSCKSSGYTFTTYVMHVKQKPGQGLEWIGYINPYNDGSKYNEKFKGKATLTSDKSSNTAYMELSSLTSEDSAVYYSDSHYGGSPAYWGQGTLVTVSA
